From US20220025008A1 (FAPON BIOTECH, published 2022)

T1: Recombinant NT antigen (N-terminal pro-brain natriuretic peptide, NT-proBNP) (human, UniProt P16860 27-102)
T1 construct: domain: N-terminal pro-brain natriuretic peptide (NT-proBNP); also called recombinant NT protein; N-terminal pro-B-type natriuretic peptide
T1 sequence (looked up): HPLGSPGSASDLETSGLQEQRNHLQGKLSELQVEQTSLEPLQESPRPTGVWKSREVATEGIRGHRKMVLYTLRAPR

B1: Mutation 1-6 (antibody, V domains shown)
VH: QVRLQESGPSQVKPAQTLSLTCAISGFSVTTYYIDWVRHTPGKPPEWLAQMTKDGNAVHNPTVRSRLSITRDTSKSQVFLKLTGVTTEDTAVYYCVRGIIDWGPGLLVTVSS
VL: QAVLTQPSSVSRSLGQTVSITCSGSSDNVGFGDYINWFQLIPGSAPKTLIFGASSRIRGVPDRFSGSRSGNTATLTINSLQAEDEADYYCGSPNSRNYVFGSGTRLTVLS
B2: Mutation 1-21 (antibody)
heavy: QVRLQESGPSQVKPAQTLSLTCAISGFSLTTYYIDWVRHTPGKPPEWLAQMTKDGNAVHQPTLRSRLSITRDTSKSQVFLKLTGVTTEDTAVYYCVRGLIDFGPGLLVTVSSASTTPPKVYPLTSCCGDTSSSIVTLGCLVSSYMPEPVTVTWNSGALTSGVHTFPAILQSSGLYSLSSVVTVPASTSGAQTFICNVAHPASSTKVDKRVEPGCPDPCKHCRCPPPELPGGPSVFIFPPKPKDTLTISGTPEVTCVVVDVGQDDPEVQFSWFVDNVEVRTARTKPREEQFNSTFRVVSALPIQHQDWTGGKEFKCKVHNEGLPAPIVRTISRTKGQAREPQVYVLAPPQEELSKSTLSVTCLVTGFYPDYIAVEWQKNGQPESEDKYGTTTSQLDADGSYFLYSRLRVDKNSWQEGDTYACVVMHEALHNHYTQKSISKPPGK
light: QAVLTQPSSVSRSLGQTVSITCSGSSDQVGFGDYINWFQLIPGSAPKTLIFGAYSRIRGVPDRFSGSRSGNTATLTINSLQAEDEADYYCGSANSRGGYVFGSGTRLTVLSQPKSAPSVTLFPPSKEELDTNKATVVCLISDFYPGSVNVVWKADGSTINQNVKTTQASKQSNSKYAASSYLTLTGSEWKSKSSYTCEVTHEGSTVTKTVKPSECS
B3: Mutation 1-5 (antibody)
heavy: QVRLQESGPSQVKPAQTLSLTCAISGFSLTTYYVDWVRHTPGKPPEWLAQMTKDGNAVHNPTVRSRLSITRDTSKSQVFLKLTGVTTEDTAVYYCVRGVIDFGPGLLVTVSSASTTPPKVYPLTSCCGDTSSSIVTLGCLVSSYMPEPVTVTWNSGALTSGVHTFPAILQSSGLYSLSSVVTVPASTSGAQTFICNVAHPASSTKVDKRVEPGCPDPCKHCRCPPPELPGGPSVFIFPPKPKDTLTISGTPEVTCVVVDVGQDDPEVQFSWFVDNVEVRTARTKPREEQFNSTFRVVSALPIQHQDWTGGKEFKCKVHNEGLPAPIVRTISRTKGQAREPQVYVLAPPQEELSKSTLSVTCLVTGFYPDYIAVEWQKNGQPESEDKYGTTTSQLDADGSYFLYSRLRVDKNSWQEGDTYACVVMHEALHNHYTQKSISKPPGK
light: QAVLTQPSSVSRSLGQTVSITCSGSSDNVGFGDYINWFQLIPGSAPKTLIFGAYSRVRGVPDRFSGSRSGNTATLTINSLQAEDEADYYCGSGNSRNYVFGSGTRLTVLSQPKSAPSVTLFPPSKEELDTNKATVVCLISDFYPGSVNVVWKADGSTINQNVKTTQASKQSNSKYAASSYLTLTGSEWKSKSSYTCEVTHEGSTVTKTVKPSECS
B4: WT 1-7 (antibody, V domains shown)
VH: QVRLQESGPSQVKPAQTLSLTCAISGPSVTTYYLDWVRHTPGKPPEWLAQMTKDANAVHQPTVRSRLSITRDTSKSQVFLKLTGVTTEDTAVYYCVKGVIDWGPGLLVTVSS
V domain: QAVLTQPSSVSRSLGQTVSITCSGSSDNVGPGDYINWFQLIPGSAPKTLIFAAYSRLRGVPDRFSGSRSGNTATLTINSLQAEDEADYYCGSGNSRGGYVWGSGTRLTVLS
B5: WT 1-6 (antibody, V domains shown)
VH: QVRLQESGPSQVKPAQTLSLTCAISGPSITTYYVDWVRHTPGKPPEWLAQMTKDANAVHQPTIRSRLSITRDTSKSQVFLKLTGVTTEDTAVYYCVKGLIDWGPGLLVTVSS
V domain: QAVLTQPSSVSRSLGQTVSITCSGSSDQVGPGDYLNWFQLIPGSAPKTLIFAASSRLRGVPDRFSGSRSGNTATLTINSLQAEDEADYYCGSANSRGGYVWGSGTRLTVLS
B6: Mutation 1-42 (antibody, V domains shown)
VH: QVRLQESGPSQVKPAQTLSLTCAISGFSVTTYYIDWVRHTPGKPPEWLAQMTKDGNAVHNPTVRSRLSITRDTSKSQVFLKLTGVTTEDTAVYYCVRGIIDWGPGLLVTVSS
VL: QAVLTQPSSVSRSLGQTVSITCSGSSDNVGFGDYINWFQLIPGSAPKTLIFGASSRIRGVPDRFSGSRSGNTATLTINSLQAEDEADYYCGSGNSRGGYVFGSGTRLTVLS
B7: Mutation 1-26 (antibody, V domains shown)
VH: QVRLQESGPSQVKPAQTLSLTCAISGFSVTTYYVDWVRHTPGKPPEWLAQMTKDGNAVHQPTLRSRLSITRDTSKSQVFLKLTGVTTEDTAVYYCVRGLIDWGPGLLVTVSS
VL: QAVLTQPSSVSRSLGQTVSITCSGSSDQVGFGDYVNWFQLIPGSAPKTLIFGASSRVRGVPDRFSGSRSGNTATLTINSLQAEDEADYYCGSANSRGGYVFGSGTRLTVLS
B8: Mutation 1-52 (antibody, V domains shown)
VH: QVRLQESGPSQVKPAQTLSLTCAISGFSVTTYYLDWVRHTPGKPPEWLAQMTKDGNAVHQPTVRSRLSITRDTSKSQVFLKLTGVTTEDTAVYYCVRGVIDWGPGLLVTVSS
VL: QAVLTQPSSVSRSLGQTVSITCSGSSDNVGFGDYLNWFQLIPGSAPKTLIFGAYSRLRGVPDRFSGSRSGNTATLTINSLQAEDEADYYCGSGNSRGGYVFGSGTRLTVLS
B9: Mutation 1-24 (antibody, V domains shown)
VH: QVRLQESGPSQVKPAQTLSLTCAISGFSVTTYYIDWVRHTPGKPPEWLAQMTKDGNAVHQPTIRSRLSITRDTSKSQVFLKLTGVTTEDTAVYYCVRGIIDWGPGLLVTVSS
VL: QAVLTQPSSVSRSLGQTVSITCSGSSDQVGFGDYVNWFQLIPGSAPKTLIFGASSRIRGVPDRFSGSRSGNTATLTINSLQAEDEADYYCGSPNSRGGYVFGSGTRLTVLS
B10: WT 1-4 (antibody)
heavy: QVRLQESGPSQVKPAQTLSLTCAISGPSVTTYYVDWVRHTPGKPPEWLAQMTKDANAVHQPTLRSRLSITRDTSKSQVFLKLTGVTTEDTAVYYCVKGVIDFGPGLLVTVSSASTTPPKVYPLTSCCGDTSSSIVTLGCLVSSYMPEPVTVTWNSGALTSGVHTFPAILQSSGLYSLSSVVTVPASTSGAQTFICNVAHPASSTKVDKRVEPGCPDPCKHCRCPPPELPGGPSVFIFPPKPKDTLTISGTPEVTCVVVDVGQDDPEVQFSWFVDNVEVRTARTKPREEQFNSTFRVVSALPIQHQDWTGGKEFKCKVHNEGLPAPIVRTISRTKGQAREPQVYVLAPPQEELSKSTLSVTCLVTGFYPDYIAVEWQKNGQPESEDKYGTTTSQLDADGSYFLYSRLRVDKNSWQEGDTYACVVMHEALHNHYTQKSISKPPGK
light: QAVLTQPSSVSRSLGQTVSITCSGSSDQVGPGDYVNWFQLIPGSAPKTLIFAATSRIRGVPDRFSGSRSGNTATLTINSLQAEDEADYYCGSGNSRGGYVWGSGTRLTVLSQPKSAPSVTLFPPSKEELDTNKATVVCLISDFYPGSVNVVWKADGSTINQNVKTTQASKQSNSKYAASSYLTLTGSEWKSKSSYTCEVTHEGSTVTKTVKPSECS
B11: Mutation 1-33 (antibody)
heavy: QVRLQESGPSQVKPAQTLSLTCAISGFSVTTYYIDWVRHTPGKPPEWLAQMTKDGNAVHQPTLRSRLSITRDTSKSQVFLKLTGVTTEDTAVYYCVRGLIDFGPGLLVTVSSASTTPPKVYPLTSCCGDTSSSIVTLGCLVSSYMPEPVTVTWNSGALTSGVHTFPAILQSSGLYSLSSVVTVPASTSGAQTFICNVAHPASSTKVDKRVEPGCPDPCKHCRCPPPELPGGPSVFIFPPKPKDTLTISGTPEVTCVVVDVGQDDPEVQFSWFVDNVEVRTARTKPREEQFNSTFRVVSALPIQHQDWTGGKEFKCKVHNEGLPAPIVRTISRTKGQAREPQVYVLAPPQEELSKSTLSVTCLVTGFYPDYIAVEWQKNGQPESEDKYGTTTSQLDADGSYFLYSRLRVDKNSWQEGDTYACVVMHEALHNHYTQKSISKPPGK
light: QAVLTQPSSVSRSLGQTVSITCSGSSDQVGFGDYINWFQLIPGSAPKTLIFGAYSRIRGVPDRFSGSRSGNTATLTINSLQAEDEADYYCGSANSRGGYVFGSGTRLTVLSQPKSAPSVTLFPPSKEELDTNKATVVCLISDFYPGSVNVVWKADGSTINQNVKTTQASKQSNSKYAASSYLTLTGSEWKSKSSYTCEVTHEGSTVTKTVKPSECS
B12: Mutation 1-28 (antibody, V domains shown)
VH: QVRLQESGPSQVKPAQTLSLTCAISGFSITTYYLDWVRHTPGKPPEWLAQMTKDGNAVHQPTVRSRLSITRDTSKSQVFLKLTGVTTEDTAVYYCVRGVIDWGPGLLVTVSS
VL: QAVLTQPSSVSRSLGQTVSITCSGSSDNVGFGDYLNWFQLIPGSAPKTLIFGASSRLRGVPDRFSGSRSGNTATLTINSLQAEDEADYYCGSGNSRGGYVFGSGTRLTVLS
B13: Mutation 1-38 (antibody, V domains shown)
VH: QVRLQESGPSQVKPAQTLSLTCAISGFSITTYYVDWVRHTPGKPPEWLAQMTKDGNAVHQPTLRSRLSITRDTSKSQVFLKLTGVTTEDTAVYYCVRGLIDWGPGLLVTVSS
VL: QAVLTQPSSVSRSLGQTVSITCSGSSDQVGFGDYINWFQLIPGSAPKTLIFGATSRVRGVPDRFSGSRSGNTATLTINSLQAEDEADYYCGSGNSRGGYVFGSGTRLTVLS

biological target: T1, Recombinant NT antigen (N-terminal …); test: indirect ELISA, KD calculated from half-max OD at 4 coating concentrations
Method: Recombinant NT antigen was diluted with coating solution to 1 μg/ml a microplate overnight at 4° C.; which was washed twice with washing solution and patted dry on the next day; with addition of blocking solution (20% BSA+80% PBS) at 120 μL per well at 37° C. for 1 h and patted dry; added the diluted NT monoclonal antibody, 100 μL/well at 37° C. for 30 min (partial supernatant for 1 h); washed 5 times with washing solution and patted dry; added rabbit anti-goat IgG-HRP […] per well at 37° C. for 30 min; washed 5 times with washing solution and patted dry; added color developing solution A (50 μL/well), added color developing solution B (50 μL/well) for 10 min; added stop solution, 50 μL/well; followed by reading the OD value at 450 nm (reference 630 nm) on the microplate reader.
Data from the enzyme immunoassay indirect method were analyzed in the same way as the activity identification, with four gradients of 3 μg/ml, 1.5 μg/ml, 0.75 μg/ml and 0.375 μg/ml for coating; the antibody was diluted from 1000 ng/ml by 2 times to 0.977 ng/ml for loading sample. OD values corresponding to different antibody concentrations at different coating concentrations were obtained. Under the same coating concentration, data were plotted logarithmically with the antibody concentration as the abscissa and the OD value as the ordinate.

Going from B1 to B2, the Kd rises from 1.17 nM to 2.53 nM (2.2-fold).

B3 and B4 are within 1.5-fold of each other in Kd: 6.1 nM for the first, 5.05 nM for the second.

First: B5
Second: B6
The Kd of the first is 2.8-fold higher: 6.14 nM for the first, 2.22 nM for the second. The second binds more tightly here.

Compared with B7, B8 is 1.8-fold higher in Kd: 1.51 nM for the first, 2.71 nM for the second.

Going from B9 to B10, the Kd rises from 1.17 nM to 3.02 nM (2.6-fold).

B11 and B12 are within 1.5-fold of each other in Kd: 2.6 nM for the first, 2.25 nM for the second.

B13 was tested, and the Kd was 1.82 nM.
